Residue numbers refer to the chain shown, from its start.
Assays:
[1] = biological target: T1, full-length GLI1, wild type, 35S-radiolabeled (human, UniProt P08151-1 1-1106, [35S]-methionine label); experiment: pull-down; purified GST-SUFU, 1.25-80 nM, captured on glutathione-Sepharose beads; ∼1 pmol 35S-GLI1 (1-232 or full length) in 200 μl; 15 min at 30°C, then 1 h at room temperature; Binding Buffer + 1 mg/ml BSA; bound GLI1 quantified by SDS-PAGE and Phosphorimager; Kd from binding isotherms; settings: one partner purified
T1 construct: human GLI1, full length (1,106 residues); the plasmid used for in vitro translation of full-length GLI1 is not described; also called full-length GLI1 protein; FL-GLI1; source: in vitro transcription/translation, partially purified by ammonium sulfate precipitation
T1 sequence (looked up): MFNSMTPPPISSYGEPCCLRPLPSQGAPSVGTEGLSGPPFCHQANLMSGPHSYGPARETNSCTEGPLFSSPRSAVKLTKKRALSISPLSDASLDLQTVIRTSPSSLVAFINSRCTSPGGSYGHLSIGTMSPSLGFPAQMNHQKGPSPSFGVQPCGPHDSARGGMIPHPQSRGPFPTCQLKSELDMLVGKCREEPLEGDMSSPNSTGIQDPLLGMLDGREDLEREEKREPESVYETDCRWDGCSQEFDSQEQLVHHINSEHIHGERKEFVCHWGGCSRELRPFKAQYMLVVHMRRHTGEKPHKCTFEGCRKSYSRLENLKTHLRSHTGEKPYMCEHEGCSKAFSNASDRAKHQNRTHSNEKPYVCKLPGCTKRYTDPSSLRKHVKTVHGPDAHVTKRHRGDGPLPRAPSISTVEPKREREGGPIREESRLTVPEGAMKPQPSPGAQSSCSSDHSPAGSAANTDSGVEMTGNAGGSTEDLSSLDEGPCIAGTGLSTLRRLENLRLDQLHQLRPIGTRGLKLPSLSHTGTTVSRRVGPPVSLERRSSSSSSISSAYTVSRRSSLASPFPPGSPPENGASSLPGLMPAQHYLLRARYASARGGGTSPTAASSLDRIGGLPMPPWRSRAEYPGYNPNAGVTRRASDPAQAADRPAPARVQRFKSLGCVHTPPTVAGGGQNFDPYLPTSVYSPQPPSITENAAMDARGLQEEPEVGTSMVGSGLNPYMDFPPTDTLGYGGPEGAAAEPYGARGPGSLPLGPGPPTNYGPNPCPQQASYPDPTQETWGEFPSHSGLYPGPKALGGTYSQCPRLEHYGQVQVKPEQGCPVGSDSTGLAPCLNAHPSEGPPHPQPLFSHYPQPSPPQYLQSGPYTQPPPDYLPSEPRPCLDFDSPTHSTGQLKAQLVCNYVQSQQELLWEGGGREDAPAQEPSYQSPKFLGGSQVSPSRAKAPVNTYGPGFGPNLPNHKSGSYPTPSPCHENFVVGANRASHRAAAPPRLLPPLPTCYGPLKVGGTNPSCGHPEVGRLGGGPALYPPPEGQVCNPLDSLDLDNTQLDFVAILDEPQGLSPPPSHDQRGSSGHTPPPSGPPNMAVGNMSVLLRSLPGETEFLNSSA

[2] = biological target: T2, full-length GLI1^G122A,H123A, 35S-radiolabeled (human, UniProt P08151-1 1-1106, G122A | H123A, [35S]-methionine label); experiment: as above; settings: one partner purified
T2 construct: human GLI1, full length (1,106 residues); also called G122A, H123A double substitution; source: in vitro transcription/translation, partially purified by ammonium sulfate precipitation
T2 sequence (looked up): T1 sequence (looked up) with G122A, H123A

- Kd [1]: 14 ± 4 nM
- Kd [2]: 120 ± 35 nM
B1: GST-SUFU (fusion of GST to full-length human SUFU) (natural protein, UniProt Q9UMX1-1 1-484, looked up)
chain: MAELRPSGAPGPTAPPAPGPTAPPAFASLFPPGLHAIYGECRRLYPDQPNPLQVTAIVKYWLGGPDPLDYVSMYRNVGSPSANIPEHWHYISFGLSDLYGDNRVHEFTGTDGPSGFGFELTFRLKRETGESAPPTWPAELMQGLARYVFQSENTFCSGDHVSWHSPLDNSESRIQHMLLTEDPQMQPVQTPFGVVTFLQIVGVCTEELHSAQQWNGQGILELLRTVPIAGGPWLITDMRRGETIFEIDPHLQERVDKGIETDGSNLSGVSAKCAWDDLSRPPEDDEDSRSICIGTQPRRLSGKDTEQIRETLRRGLEINSKPVLPPINPQRQNGLAHDRAPSRKDSLESDSSTAIIPHELIRTRQLESVHLKFNQESGALIPLCLRGRLLHGRHFTYKSITGDMAITFVSTGVEGAFATEEHPYAAHGPWLQILLTEEFVEKMLEDLEDLTSPEEFKLPKEYSWPEKKLKVSILPDVVFDSPLH
notes: human SUFU, full length (residues 1-484), BamHI-SUFU-SalI cassette in pGEX-LB; pGEX-LB carries a Gly-Gly-Gly-Gly-Gly-Ser-Gly stretch between GST and the fused protein; also called full-length GST-SUFU; source: Escherichia coli, purified (glutathione-Sepharose); not shown: GST, N-terminal, kept

Source: PMC9279676, “ERK2 MAP kinase regulates SUFU binding by multisite phosphorylation of GLI1” (Life Science Alliance, 2022)
